This note sets out measurements from article PMC4731797.

The target of the test is E. coli 70S ribosome (E. coli (endogenous in MRE600)) (UniProt P0AG67). Briefly: co-purification with ribosomes isolated from cell extract; 70S ribosomes from E. coli MRE600, low salt wash (0.75 M NH4Cl; 0.6 M for 2D-PAGE); 12% SDS-PAGE and 2D-PAGE, MALDI-TOF/TOF mass spectrometry, western blot with anti-AdhE; occupancy from band intensities with L2 as 100%. A general note: In western blotting, separated proteins are transferred to a membrane and probed.

Turning to “outer membrane protein C (OmpC), co-purified with the E. coli 70S ribosome (from UniProt P06996 22-367) (natural protein)”, the occupancy was 60%.
For the substance “aldehyde-alcohol dehydrogenase E (AdhE), co-purified with the E. coli 70S ribosome (from UniProt P0A9Q7 1-891) (natural protein)”, the occupancy came out at 50%.
